Results reported in the Immune Epitope Database (IEDB).

What was measured:
HLA-A*02:01 [1] = test: IEDB peptide-MHC binding, purified MHC/competitive/fluorescence; ≥ and ≤ were set here for values at or beyond the usual limits of such assays
HLA-A*33:01 = test: IEDB peptide-MHC binding, purified MHC/competitive/radioactivity; filed as Kd, often an IC50 or EC50 that approximates it; ≥ and ≤ were set here for values at or beyond the usual limits of such assays
HLA-A*30:01 = test: as above
HLA-A*68:01 = test: as above
HLA-A*31:01 = test: as above
HLA-A*03:01 = test: as above; details: source organism: Lymphocytic choriomeningitis virus (strain Armstrong)
HLA-A*30:02 = test: as above
HLA-A*02:01 [2] = test: IEDB peptide-MHC binding, purified MHC/direct/fluorescence; filed as Kd, often an IC50 or EC50 that approximates it; ≥ and ≤ were set here for values at or beyond the usual limits of such assays
HLA-A*69:01 = test: as above
HLA-B*07:02 = test: as above; details: source organism: Homo sapiens
HLA-B*40:01 = test: as above
HLA-A*02:01 [3] = test: IEDB peptide-MHC binding, purified MHC/competitive/fluorescence; filed as Kd, often an IC50 or EC50 that approximates it; ≥ and ≤ were set here for values at or beyond the usual limits of such assays
HLA-A*24:02 = test: IEDB peptide-MHC binding, purified MHC/competitive/radioactivity; filed as Kd, often an IC50 or EC50 that approximates it; ≥ and ≤ were set here for values at or beyond the usual limits of such assays; details: source organism: Dengue virus 3 Singapore/8120/1995
HLA-B*15:01 = test: IEDB peptide-MHC binding, purified MHC/direct/fluorescence; filed as Kd, often an IC50 or EC50 that approximates it; ≥ and ≤ were set here for values at or beyond the usual limits of such assays; details: source organism: SARS-CoV1
[4] = source organism: Lymphocytic choriomeningitis virus (strain Armstrong)
[5] = source organism: Dengue virus 2 Jamaica/1409/1983
[6] = source organism: Listeria monocytogenes
[7] = source organism: Dengue virus 2 Peru/IQT2913/1996
[8] = source organism: Entamoeba histolytica HM-1:IMSS
[9] = source organism: Vaccinia virus WR
[10] = source organism: Zaire ebolavirus
[11] = source organism: Dengue virus 1 Singapore/S275/1990
[12] = source organism: Dengue virus 1 Brazil/97-11/1997
[13] = source organism: Sudan ebolavirus
[14] = source organism: SARS coronavirus Tor2

**Q.** GNLSPETLV was tested. Which IC50 (HLA-A*02:01 [1]; source organism: Vaccinia virus) did it give?
**A.** The IC50 was at least 106 µM.

**Q.** For FTNDSIISH, which Kd (HLA-A*33:01; [4]) is on record?
**A.** The Kd was 0.342 µM.

**Q.** What about the Kd (HLA-A*30:01; [4]) of the same sequence?
**A.** The Kd was at least 45500 nM.

**Q.** What about the Kd (HLA-A*68:01; [4]) of the same sequence?
**A.** The Kd was 81.9 nM.

**Q.** What about the Kd (HLA-A*31:01; [4]) of the same sequence?
**A.** The Kd was 1990 nM.

**Q.** And the Kd (HLA-A*03:01)?
**A.** The Kd was 303 nM.

**Q.** LHQVFGAIY was tested. Which Kd (HLA-A*30:02; [5]) did it give?
**A.** Its Kd is 42.7 nM.

**Q.** What does the source list for GLYEWISEQ?
**A.** Kd (HLA-A*02:01 [2]; [6]): 177 nM; Kd (HLA-A*69:01; [6]): ≥ 20000 nM

**Q.** Which Kd (HLA-A*30:02; [7]) does the source give for DKKGKVVGLY here?
**A.** The Kd was 2.56 nM.

**Q.** Which results are given for KQLEWKWGI?
**A.** Kd (HLA-A*02:01 [2]; [8]): 0.7 nM; Kd (HLA-A*69:01; [8]): 23.2 nM

**Q.** KIKAGPRYV was tested. Which Kd (HLA-A*30:01; [9]) did it give?
**A.** The Kd was 6.93 nM.

**Q.** APRALLLLL was tested. Which Kd (HLA-B*07:02) did it give?
**A.** Its Kd is 2100 nM.

**Q.** FLIKFLLIH was tested. Which IC50 (HLA-A*02:01 [1]; [10]) did it give?
**A.** Its IC50 is at least 296 µM.

**Q.** Which Kd (HLA-B*40:01; source organism: Influenza A virus (A/Denver/1957(H1N1))) does the source give for LEDSHNGKL here?
**A.** The Kd was 73 nM.

**Q.** With MTFGDIPLV as the sequence, how does the Kd (HLA-A*30:01; [9]) read?
**A.** Its Kd is 235 nM.

**Q.** KAKRGTAQI was tested. Which Kd (HLA-A*30:01; [11]) did it give?
**A.** The Kd was 289 nM.

**Q.** For FLYGWLFIL, which Kd (HLA-A*02:01 [2]; source organism: Francisella tularensis subsp. tularensis) is on record?
**A.** Its Kd is 102 nM.

**Q.** RMPEAAPPV was tested. Which Kd (HLA-A*02:01 [3]; source organism: Tupaia belangeri) did it give?
**A.** The Kd was 0.5 nM.

**Q.** For KHMIAGVLF, which Kd (HLA-A*24:02) is on record?
**A.** Its Kd is 683 nM.

**Q.** INRFTMRHK was tested. Which Kd (HLA-A*30:01; [7]) did it give?
**A.** Its Kd is 1110 nM.

**Q.** SQDTTIPDV was tested. Which IC50 (HLA-A*02:01 [1]; [10]) did it give?
**A.** The IC50 was 5.34 µM.

**Q.** KVVRVQRPA was tested. Which Kd (HLA-A*30:01; [12]) did it give?
**A.** Its Kd is 61.4 nM.

**Q.** Which Kd (HLA-A*02:01 [2]; [8]) does the source give for NVGRILGYV here?
**A.** The Kd was 146 nM.

**Q.** And the Kd (HLA-A*69:01; [8])?
**A.** Its Kd is 3.7 nM.

**Q.** Which IC50 (HLA-A*02:01 [1]; [13]) does the source give for HIPEGETTL here?
**A.** Its IC50 is 56.2 µM.

**Q.** For FKAALSSLA, which IC50 (HLA-A*02:01 [1]; [10]) is on record?
**A.** Its IC50 is at least 109 µM.

**Q.** With CLPPPPDGV as the sequence, how does the IC50 (HLA-A*02:01 [1]; [13]) read?
**A.** Its IC50 is 1.49 µM.

**Q.** RARNRVSTG was tested. Which Kd (HLA-A*30:01; [12]) did it give?
**A.** Its Kd is 180 nM.

**Q.** For DLVHFASPL, which IC50 (HLA-A*02:01 [1]; source organism: Hepatitis B virus) is on record?
**A.** The IC50 was at least 366 µM.

**Q.** For AVKSEHTGK, which Kd (HLA-A*30:01; [11]) is on record?
**A.** The Kd was 64.3 nM.

**Q.** How did the Kd (HLA-B*40:01; source organism: Mycobacterium tuberculosis variant bovis) turn out when SEILPFTVL was run?
**A.** Its Kd is 14.7 nM.

**Q.** With LALLAAFKVR as the sequence, how does the Kd (HLA-A*30:01; [5]) read?
**A.** Its Kd is 74.8 nM.

**Q.** For ATHKAPQPA, which Kd (HLA-A*69:01; source organism: Haemophilus influenzae) is on record?
**A.** The Kd was 3820 nM.

**Q.** Which results are given for KMQRMLLEK?
**A.** Kd (HLA-B*15:01): ≥ 40.3 µM; Kd (HLA-A*33:01; [14]): 13.7 µM; Kd (HLA-A*68:01; [14]): 1380 nM; Kd (HLA-A*31:01; [14]): 19 nM

**Q.** KAKWLTPFE was tested. Which Kd (HLA-A*30:01; [9]) did it give?
**A.** The Kd was 667 nM.

**Q.** With TLLMNELGV as the sequence, how does the Kd (HLA-A*02:01 [3]; source organism: Influenza A virus (A/nt/60/1968(H3N2))) read?
**A.** The Kd was 0.7 nM.

**Q.** Which Kd (HLA-A*30:01; [12]) does the source give for RLKRMAISG here?
**A.** Its Kd is 138 nM.

**Q.** With EINPFYQDV as the sequence, how does the Kd (HLA-A*02:01 [2]; [8]) read?
**A.** Its Kd is 19500 nM.

**Q.** And the Kd (HLA-A*69:01; [8])?
**A.** Its Kd is 7.6 nM.
